Measurements as given in US20260250318A1, “COMPOSITIONS AND METHODS FOR CROSSING THE BLOOD BRAIN BARRIER” (VOYAGER THERAPEUTICS, INC., priority 2022, published 2026).

Key:
[1] = target: T1, murine ALPL ortholog expressed on HEK 293T cells (NM_001287172.1) (mouse, UniProt P09242 18-501); assay: cell-based or functional assay
T1 sequence: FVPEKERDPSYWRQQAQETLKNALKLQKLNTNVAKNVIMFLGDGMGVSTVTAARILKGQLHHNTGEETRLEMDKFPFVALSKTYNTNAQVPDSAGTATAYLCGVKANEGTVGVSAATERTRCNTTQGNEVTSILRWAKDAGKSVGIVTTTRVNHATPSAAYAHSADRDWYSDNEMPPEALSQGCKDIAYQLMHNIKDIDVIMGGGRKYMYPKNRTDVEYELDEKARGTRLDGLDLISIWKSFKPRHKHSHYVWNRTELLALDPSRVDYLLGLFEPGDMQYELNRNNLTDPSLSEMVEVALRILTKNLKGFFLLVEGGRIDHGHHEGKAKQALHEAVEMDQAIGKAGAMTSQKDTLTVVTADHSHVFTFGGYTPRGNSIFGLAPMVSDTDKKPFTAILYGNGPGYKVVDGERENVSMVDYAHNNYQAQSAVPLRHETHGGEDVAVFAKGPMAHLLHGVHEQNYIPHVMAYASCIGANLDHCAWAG

[2] = target: T2, human ALPL expressed on cells (alkaline phosphatase tissue-nonspecific isozyme, NM_000478.4) (human, UniProt P05186 18-501); assay: cell-based or functional assay
T2 sequence: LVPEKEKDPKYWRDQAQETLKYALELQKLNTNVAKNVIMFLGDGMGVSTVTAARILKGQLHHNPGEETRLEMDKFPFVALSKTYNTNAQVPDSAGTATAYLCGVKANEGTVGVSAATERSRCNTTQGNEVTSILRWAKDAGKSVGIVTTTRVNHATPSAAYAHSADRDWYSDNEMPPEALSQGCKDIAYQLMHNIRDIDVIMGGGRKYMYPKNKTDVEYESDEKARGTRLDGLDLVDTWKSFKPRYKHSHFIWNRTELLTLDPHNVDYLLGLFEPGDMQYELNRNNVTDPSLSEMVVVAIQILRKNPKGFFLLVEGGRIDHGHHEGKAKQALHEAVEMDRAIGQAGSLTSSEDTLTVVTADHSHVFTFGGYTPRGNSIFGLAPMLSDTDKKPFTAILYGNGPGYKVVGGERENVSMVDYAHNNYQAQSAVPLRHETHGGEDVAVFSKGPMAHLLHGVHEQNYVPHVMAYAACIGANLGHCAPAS

[3] = target: T3, cynomolgus ALPL ortholog expressed on HEK 293T cells (XM_005544525) (Macaca fascicularis); assay: cell-based or functional assay
T3 chain: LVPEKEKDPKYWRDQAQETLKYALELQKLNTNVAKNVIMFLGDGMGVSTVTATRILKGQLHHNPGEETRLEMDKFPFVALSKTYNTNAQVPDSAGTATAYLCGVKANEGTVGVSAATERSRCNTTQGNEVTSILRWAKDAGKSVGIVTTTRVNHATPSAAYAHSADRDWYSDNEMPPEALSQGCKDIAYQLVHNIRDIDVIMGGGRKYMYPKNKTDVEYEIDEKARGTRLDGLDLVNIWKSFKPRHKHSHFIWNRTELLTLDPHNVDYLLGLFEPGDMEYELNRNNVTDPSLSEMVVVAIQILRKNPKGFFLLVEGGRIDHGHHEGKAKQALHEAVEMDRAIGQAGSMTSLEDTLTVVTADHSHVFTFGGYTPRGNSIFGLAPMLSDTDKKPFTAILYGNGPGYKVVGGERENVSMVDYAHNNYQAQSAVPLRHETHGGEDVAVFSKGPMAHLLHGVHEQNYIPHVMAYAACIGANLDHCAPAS

[4] = target: T2, human ALPL expressed on cells (alkaline …); assay: cell-based or functional assay; remark: listed apart in the source
[5] = target: T4, His-tagged ALPL (recombinant, soluble; SPR, BLI and ELISA of Examples 8 and 13) (UniProt P05186 18-502); assay: SPR (Biacore 8K), TTM-002 immobilized on CM5 chip at approximately 6300RU, His-tagged ALPL as analyte; value in the text differs from Table 41
T4 construct: also called ALPL receptor; alkaline phosphatase tissue-nonspecific isozyme
T4 sequence: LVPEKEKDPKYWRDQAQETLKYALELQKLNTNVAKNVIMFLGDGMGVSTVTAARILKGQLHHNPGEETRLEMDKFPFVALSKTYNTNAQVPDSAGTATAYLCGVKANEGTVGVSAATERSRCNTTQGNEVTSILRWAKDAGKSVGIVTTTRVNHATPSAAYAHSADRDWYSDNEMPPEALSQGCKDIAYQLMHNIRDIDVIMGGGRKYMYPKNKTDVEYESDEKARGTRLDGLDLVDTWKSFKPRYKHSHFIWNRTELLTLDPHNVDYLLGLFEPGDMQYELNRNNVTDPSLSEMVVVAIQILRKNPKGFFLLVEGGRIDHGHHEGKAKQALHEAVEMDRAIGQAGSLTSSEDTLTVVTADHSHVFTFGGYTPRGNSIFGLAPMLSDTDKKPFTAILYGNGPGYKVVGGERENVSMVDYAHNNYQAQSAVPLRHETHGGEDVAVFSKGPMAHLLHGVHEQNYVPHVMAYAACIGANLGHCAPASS

B1: TTM-002 capsid variant (AAV particle comprising the TTM-002 AAV9 capsid variant) (other)
chain 1: MAADGYLPDWLEDNLSEGIREWWALKPGAPQPKANQQHQDNARGLVLPGYKYLGPGNGLDKGEPVNAADAAALEHDKAYDQQLKAGDNPYLKYNHADAEFQERLKEDTSFGGNLGRAVFQAKKRLLEPLGLVEEAAKTAPGKKRPVEQSPQEPDSSAGIGKSGAQPAKKRLNFGQTGDTESVPDPQPIGEPPAAPSGVGSLTMASGGGAPVADNNEGADGVGSSSGNWHCDSQWLGDRVITTSTRTWALPTYNNHLYKQISNSTSGGSSNDNAYFGYSTPWGYFDFNRFHCHFSPRDWQRLINNNWGFRPKRLNFKLFNIQVKEVTDNNGVKTIANNLTSTVQVFTDSDYQLPYVLGSAHEGCLPPFPADVFMIPQYGYLTLNDGSQAVGRSSFYCLEYFPSQMLRTGNNFQFSYEFENVPFHSSYAHSQSLDRLMNPLIDQYLYYLSKTINGHDSPHKSGQNQQTLKFSVAGPSNMAVQGRNYIPGPSYRQQRVSTTVTQNNNSEFAWPGASSWALNGRNSLMNPGPAMASHKEGEDRFFPLSGSLIFGKQGTGRDNVDADKVMITNEEEIKTTNPVATESYGQVATNHQSAQAQAQTGWVQNQGILPGMVWQDRDVYLQGPIWAKIPHTDGNFHPSPLMGGFGMKHPPPQILIKNTPVPADPPTAFNKDKLNSFITQYSTGQVSVEIEWELQKENSKRWNPEIQYTSNYYKSNNVEFAVNTEGVYSEPRPIGTRYLTRNL
chain 2: TAPGKKRPVEQSPQEPDSSAGIGKSGAQPAKKRLNFGQTGDTESVPDPQPIGEPPAAPSGVGSLTMASGGGAPVADNNEGADGVGSSSGNWHCDSQWLGDRVITTSTRTWALPTYNNHLYKQISNSTSGGSSNDNAYFGYSTPWGYFDFNRFHCHFSPRDWQRLINNNWGFRPKRLNFKLFNIQVKEVTDNNGVKTIANNLTSTVQVFTDSDYQLPYVLGSAHEGCLPPFPADVFMIPQYGYLTLNDGSQAVGRSSFYCLEYFPSQMLRTGNNFQFSYEFENVPFHSSYAHSQSLDRLMNPLIDQYLYYLSKTINGHDSPHKSGQNQQTLKFSVAGPSNMAVQGRNYIPGPSYRQQRVSTTVTQNNNSEFAWPGASSWALNGRNSLMNPGPAMASHKEGEDRFFPLSGSLIFGKQGTGRDNVDADKVMITNEEEIKTTNPVATESYGQVATNHQSAQAQAQTGWVQNQGILPGMVWQDRDVYLQGPIWAKIPHTDGNFHPSPLMGGFGMKHPPPQILIKNTPVPADPPTAFNKDKLNSFITQYSTGQVSVEIEWELQKENSKRWNPEIQYTSNYYKSNNVEFAVNTEGVYSEPRPIGTRYLTRNL
chain 3: MASGGGAPVADNNEGADGVGSSSGNWHCDSQWLGDRVITTSTRTWALPTYNNHLYKQISNSTSGGSSNDNAYFGYSTPWGYFDFNRFHCHFSPRDWQRLINNNWGFRPKRLNFKLFNIQVKEVTDNNGVKTIANNLTSTVQVFTDSDYQLPYVLGSAHEGCLPPFPADVFMIPQYGYLTLNDGSQAVGRSSFYCLEYFPSQMLRTGNNFQFSYEFENVPFHSSYAHSQSLDRLMNPLIDQYLYYLSKTINGHDSPHKSGQNQQTLKFSVAGPSNMAVQGRNYIPGPSYRQQRVSTTVTQNNNSEFAWPGASSWALNGRNSLMNPGPAMASHKEGEDRFFPLSGSLIFGKQGTGRDNVDADKVMITNEEEIKTTNPVATESYGQVATNHQSAQAQAQTGWVQNQGILPGMVWQDRDVYLQGPIWAKIPHTDGNFHPSPLMGGFGMKHPPPQILIKNTPVPADPPTAFNKDKLNSFITQYSTGQVSVEIEWELQKENSKRWNPEIQYTSNYYKSNNVEFAVNTEGVYSEPRPIGTRYLTRNL
Question: B1 was tested. Which “fold change in luciferase activity relative to the pCMV6 control cells (Murine ALPL)” value [1] did it give?
Answer: Its value is 57.2 fold.

Question: And the “fold change in luciferase activity relative to the pCMV6 control cells (Human ALPL)” value [2]?
Answer: Its value is 60.3 fold.

Question: What about the “fold change in luciferase activity relative to the pCMV6 control cells (Cynomolgus ALPL)” value [3] of the same binder?
Answer: Its value is 81.5 fold.

Question: And the “transcytosis assay: virus detected in the bottom chamber (percent to the initial virus, qPCR), MDCK ALPL overexpressing cells against MDCK cells that did not express ALPL” value [4]?
Answer: Its value is 149 fold.

Question: And the “transcytosis assay: virus detected in the bottom chamber (percent to the initial virus, qPCR), MDCK ALPL overexpressing cells, TTM-002 against AAV9” value [4]?
Answer: The value was 252 fold.

Question: What about the “transcytosis assay: virus detected in the bottom chamber (percent to the initial virus, qPCR), single MDCK clone expressing ALPL, TTM-002 against AAV9” value [4] of the same binder?
Answer: Its value is 7480 fold.

Question: And the kon [5]?
Answer: The kon was 32000 M⁻¹ s⁻¹.
